For assay [1], the target named is AtPCO4 Y183F (Arabidopsis thaliana).
For assay [2], the target named is AtPCO4 Y73R (Arabidopsis thaliana).
The target in assay [3] is AtPCO4 S107L (Arabidopsis thaliana).
The target in assay [4] is AtPCO4 V105G (Arabidopsis thaliana).
The target in assay [5] is AtPCO4 C173A (Arabidopsis thaliana). Description: other fluorescence titration.
For assay [6], the target named is AtPCO4 D177E (Arabidopsis thaliana). Description: other fluorescence titration.
In assay [7] the target is AtPCO4 Y183F (Arabidopsis thaliana). The assay is described as follows: other fluorescence titration.
The target in assay [8] is AtPCO4 Y73R (Arabidopsis thaliana). The assay is described as follows: other fluorescence titration.

For “RAP2.12_(2-15) peptide substrate (from UniProt Q9SSA8 2-15)”, the figures for the catalytic constant (kcat) of RAP2.12 (2-15) oxidation in assay [1] and in assay [2] were 0.5 s⁻¹ and 0.0167 s⁻¹, respectively. Further, the Michaelis-Menten constant (KM) for RAP2.12 (2-15) in the activity assay in assay [3] worked out at 99 µM; in assay [4], 97 µM. Moreover, the Kd is 250 µM in assay [5], 150 µM in assay [6], 3500 µM in assay [7] and 3000 µM in assay [8].

Values taken from paper doi:10.1101/2025.07.24.666444.
